In PMC11929097, “Stabilized designs of the malaria adhesin protein PvRBP2b for use as a potential diagnostic for Plasmodium vivax [image fx2.gif]” (The Journal of Biological Chemistry, 2025):
Values joined by “and” are separate entries in the source; they are usually repeats but may differ in a detail not shown here. Identical values can stand only once.

B1: human mAb 283284 (antibody, V domains shown)
VH: QVQLQQWGAGLLKPSETLALTCTVYGGSSSGYYWNWIRQSPGKGLEWIGEISDSGSTIYNPSLESRVTMSVDTSKNQFSLKLTSVTAADTAVYYCAKAILTRYNWLDPWSQGTLVTVSS
VL: DIVMTQSPSSLSASVGDRISISCRASQGVNSALAWYQQKPGKAPKLLIYDASTLESGVPSRFSGSGSGTDFALTINSLQPEDFATYYCQQFNSYPLTFGGGTKVEIK
notes: naturally acquired human mAb, recombinant IgG captured by its Fc; source: Expi293 HEK cells, transfected, purified (protein A, SEC)
B2: human mAb 253245 (antibody, V domains shown)
VH: EVQLVQSGAEVKKPGSSMKVSCKASGGTFNRYVFSWVRQAPGQGLEWMGGILPILETTYYAKNFKGRVTITADESTSTVYMELSSLTSEDTAVYFCARDEHDYVWGSYRPSLTGPWGQGTLVTVSS
VL: QSALTQPPSTSGSPGQSVTISCTGTGIDVGGFSYVSWFQYHPGKAPKLIIFEVTKRPSGVPDRFSGSKSGNTASLTISGLQADDEAEYYCSSYAVNNNFVFGTGTKVTVL
notes: as for B1
B3: human mAb 241242 (antibody, V domains shown)
VH: EVQLLESGGGLVQPGGSLRLSCAVSGFTFRNYALSWVRQAPGKGLDWVSTISASGGATYYADSVKGHFTISRDNSKNILYLDMKSLRAEDTAIYYCARDGGSYTPYFFLDSWGQGALVTVSS
VL: SYELTQPASVSVAPGQTAQITCGGNSIGRKSIHWYQHKPGQAPVLVISYDSDRPSGIPERFSGSNSGNTATLTISKVEAGDEADFYCQVRDSDNDHVVFGGGTKLTVL
notes: as for B1
B4: human mAb 251249 (antibody, V domains shown)
VH: EVQLVESGGGLVKPGGSLRLSCEASGFLFSSYSMNWVRQAPGKGLEWVSSITGYSSEVFYTDSVKGRFTVSRDNSKNSLYLQMDSLRAEDTAVYYCARALTIFGVVITDYWFFDLWGRGTLVTVSS
VL: EIVLTQSPATLSLSPGDRATLSCRASQSVTTFLAWYQQKPGQAPRLLIYDVSNRATGIPARFSGSGSGTDFTLTISSLEPEDFAVYYCQQRSNWGLTFGGGTKVEIK
notes: as for B1
B5: human mAb 237235 (antibody, V domains shown)
VH: QVQLVESGGGVVQPGRSLRLSCAASGFMFNSYGMHWVRQAPGKGLEWMAFISYDGSDDYYGDSVKGRITISRDNSKNTLFLHINSLRTEDTAVYYCAKESNYGENAFDVWGHGTMVTVSS
VL: QSALTQPRSVSGSPGQSVTISCTGTSNDVGFYNFVSWYQHHPGKAPKLMIYDVTERPSGVPDRFSGSKSGNTASLTISGLQAEDEAEYYCCSYAGTYTFVFGHGTKVTVL
notes: as for B1
B6: human mAb 243244 (antibody, V domains shown)
VH: QVQLVESGGGVVQSGKSLRVSCAASGFTFSSYGMHWVRQAPGKGLEWVAFISYDGDNKYSADSVKGRLTISRDNSKNTLYLQMNSLRPEDTAVYYCAKESNYGENAFDIWGQGTMVTVSS
VL: QSALTQPRSVSGSPGQSVTISCTGTSSDVGFYNFVSWYQHHPGKAPKLIIYDVSERPSGVPDRFSGSKSGNTASLSISGLQPEDEADYYCCSYAGTYTFVFGSGTKVTVL
notes: as for B1
B7: human mAb 258259 (antibody, V domains shown)
VH: EVQLLESGGGLVRPGGSQRLSCAASGFTFTPYAMTWVRQAPGKGLEWLSTISGSGGSTYYADSVKGRFTISRDNSKNMLYLQMNSLTAEDTALYYCTKDKDEYTFGHNAFDVWGQGTMVTVSS
VL: SYELTQAPSVSVAPGQTARITCGGDNIGRKTVNWYQQKPGQAPVLVIYYDNDRPSGIPERFSGSNSGNMATLSISRVEVGDEADYYCQVWDSNNDHPVFGGGTKLTVV
notes: as for B1
B8: human mAb 273264 (antibody, V domains shown)
VH: EVQLLESGGGLVRPGGSQRLSCAASGFTFTPYAMTWVRQAPGKGLEWLSTISGSGGSTSYADSVKGRFTISRDNSKNILYLQMDSLRAEDTALYYCTKDKDEYTFGHNAFDVWGRGTMVTVSS
VL: SYELTQAPSVSVAPGQTARITCGGDNIGRTSVHWYQQKPGQAPVLVIFYDNDRPSGIPERFSGSNSGNMATLSISRVEVGDEADYYCQVWDSNNDHPVFGGGTKLTVV
notes: as for B1

How the values were obtained:
Assay in all cases: BLI; Octet RED96; human mAb loaded on anti-human IgG Fc capture sensor tips; parental PvRBP2b169-470 or design in solution, 2-fold series 0.63 to 10 nM; 25 °C; PBS, 0.1% bovine serum albumin, 0.05% Tween-20; global fit 1:1 model; two independent experiments
Conditions in all cases: both partners purified
[1] = target: T1, parental PvRBP2b_(169-470) (Plasmodium vivax reticulocyte-binding protein 2b, N-terminal domain) (Plasmodium vivax strain Salvador I, UniProt A5K736)
T1 construct: TEV cleavage site between the His tag and the protein; pPROEX HTb vector; also called parental construct; parental protein

[2] = target: T2, WHT2484 (PROSS-MPNN stabilized design of PvRBP2b_(169-470)) (Plasmodium vivax strain Salvador I …, Lys248Leu | Met324Phe | Gln378Leu | Arg418Glu)
T2 construct: PvRBP2b, P. vivax strain Salvador I, PVX_094255, residues 169-470 with 26 designed stabilising mutations; 26 mutations relative to the parental protein; crystal structure PDB 9DZD solved here
T2 chain: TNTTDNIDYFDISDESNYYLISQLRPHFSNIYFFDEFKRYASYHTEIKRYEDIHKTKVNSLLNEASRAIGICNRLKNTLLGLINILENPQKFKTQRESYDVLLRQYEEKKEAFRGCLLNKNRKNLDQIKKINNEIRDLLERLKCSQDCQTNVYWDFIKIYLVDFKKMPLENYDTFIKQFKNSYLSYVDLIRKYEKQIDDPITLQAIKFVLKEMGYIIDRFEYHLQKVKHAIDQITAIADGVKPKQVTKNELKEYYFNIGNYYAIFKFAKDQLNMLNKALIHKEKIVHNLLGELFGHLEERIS

[3] = target: T3, WHT2483 (PROSS-MPNN stabilized design of PvRBP2b_(169-470)) (Plasmodium vivax strain Salvador I …, Gln378Leu | Arg418Glu)
T3 construct: PvRBP2b, P. vivax strain Salvador I, PVX_094255, residues 169-470 with 19 designed stabilising mutations; 19 mutations relative to the parental protein; crystal structure PDB 9DZC solved here
T3 chain: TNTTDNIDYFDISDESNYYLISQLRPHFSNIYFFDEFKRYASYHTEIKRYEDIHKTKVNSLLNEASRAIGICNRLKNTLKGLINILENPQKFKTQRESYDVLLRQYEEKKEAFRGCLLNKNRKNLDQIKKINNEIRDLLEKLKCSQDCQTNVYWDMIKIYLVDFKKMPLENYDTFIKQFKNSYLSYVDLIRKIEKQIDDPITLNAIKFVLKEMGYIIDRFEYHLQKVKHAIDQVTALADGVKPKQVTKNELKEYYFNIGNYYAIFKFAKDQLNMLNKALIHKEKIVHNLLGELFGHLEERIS

| Binder | Kd [1] [nM] | koff [1] [s⁻¹] | kon [1] | Kd [2] | koff [2] | kon [2] | kon [3] | Kd [3] | koff [3] |
| --- | --- | --- | --- | --- | --- | --- | --- | --- | --- |
| B1 | < 0.001 | < 1e-07 | 1.48e+06 M⁻¹ s⁻¹ and 994000 M⁻¹ s⁻¹ | 0.112 nM and 0.074 nM | 0.000113 s⁻¹ and 6.89e-05 s⁻¹ | 1.01e+06 M⁻¹ s⁻¹ and 936000 M⁻¹ s⁻¹ | 838000 M⁻¹ s⁻¹ and 910000 M⁻¹ s⁻¹ | – | – |
| B2 | < 0.001 | < 1e-07 | 1.58e+06 M⁻¹ s⁻¹ and 1.18e+06 M⁻¹ s⁻¹ | – | – | 1.06e+06 M⁻¹ s⁻¹ and 1.12e+06 M⁻¹ s⁻¹ | 1.04e+06 M⁻¹ s⁻¹ and 1.26e+06 M⁻¹ s⁻¹ | – | – |
| B3 | < 0.001 | < 1e-07 | 1.24e+06 M⁻¹ s⁻¹ and 1.52e+06 M⁻¹ s⁻¹ | – | – | 956000 M⁻¹ s⁻¹ and 1.18e+06 M⁻¹ s⁻¹ | – | – | – |
| B4 | < 0.001 | < 1e-07 | 1.63e+06 M⁻¹ s⁻¹ and 1.25e+06 M⁻¹ s⁻¹ | 0.11 nM and 0.314 nM | – | 956000 M⁻¹ s⁻¹ and 1.26e+06 M⁻¹ s⁻¹ | 978000 M⁻¹ s⁻¹ and 1.37e+06 M⁻¹ s⁻¹ | – | – |
| B5 | < 0.001 | < 1e-07 | 1.78e+06 M⁻¹ s⁻¹ and 1.31e+06 M⁻¹ s⁻¹ | – | – | 658000 M⁻¹ s⁻¹ and 745000 M⁻¹ s⁻¹ | – | ≤ 0.01 nM | – |
| B6 | < 0.001 | < 1e-07 | 1.75e+06 M⁻¹ s⁻¹ and 1.32e+06 M⁻¹ s⁻¹ | – | – | 705000 M⁻¹ s⁻¹ and 780000 M⁻¹ s⁻¹ | 1.02e+06 M⁻¹ s⁻¹ and 1.24e+06 M⁻¹ s⁻¹ | 0.053 nM and 0.018 nM | – |
| B7 | < 0.001 | < 1e-07 | 1.33e+06 M⁻¹ s⁻¹ and 976000 M⁻¹ s⁻¹ | 0.069 nM and 0.081 nM | 5.39e-05 s⁻¹ and 7.69e-05 s⁻¹ | 778000 M⁻¹ s⁻¹ and 953000 M⁻¹ s⁻¹ | 778000 M⁻¹ s⁻¹ and 949000 M⁻¹ s⁻¹ | 0.085 nM and 0.059 nM | 6.59e-05 s⁻¹ and 5.6e-05 s⁻¹ |
| B8 | < 0.001 | < 1e-07 | 1.18e+06 M⁻¹ s⁻¹ and 1e+06 M⁻¹ s⁻¹ | 0.139 nM and 0.101 nM | 0.000124 s⁻¹ and 0.000106 s⁻¹ | 893000 M⁻¹ s⁻¹ and 1.05e+06 M⁻¹ s⁻¹ | 778000 M⁻¹ s⁻¹ and 1.07e+06 M⁻¹ s⁻¹ | 0.089 nM and 0.154 nM | 6.92e-05 s⁻¹ and 0.000165 s⁻¹ |
